# T1: human OX40 on cells (CHO-hOX40, 293HEK-hOX40, Jurkat-hOX40, activated primary CD4+ T cells) (human, UniProt P43489 29-277)
# T1 construct: whole, on cells; The cell type is told in each assay; also called CHO-OX40
# T1 sequence (looked up): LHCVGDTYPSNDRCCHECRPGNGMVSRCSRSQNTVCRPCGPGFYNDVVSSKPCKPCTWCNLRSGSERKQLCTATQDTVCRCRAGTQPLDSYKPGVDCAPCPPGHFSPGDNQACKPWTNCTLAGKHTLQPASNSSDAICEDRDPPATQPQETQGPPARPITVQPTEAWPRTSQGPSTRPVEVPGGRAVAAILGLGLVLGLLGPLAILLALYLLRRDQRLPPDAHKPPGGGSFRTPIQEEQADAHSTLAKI
# T2: mouse OX40Fc (Acro Biosystems) (mouse, UniProt P47741 20-211, limits assumed)
# T2 construct: Bought; not shown: Fc
# T2 sequence (looked up): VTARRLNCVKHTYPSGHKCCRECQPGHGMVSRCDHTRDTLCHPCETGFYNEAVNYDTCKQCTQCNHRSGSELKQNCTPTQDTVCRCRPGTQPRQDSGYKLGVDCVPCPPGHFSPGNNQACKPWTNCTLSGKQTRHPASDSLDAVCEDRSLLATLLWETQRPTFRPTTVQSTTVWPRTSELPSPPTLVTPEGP
# How the values were obtained:
# [1] = biological target: T3, human OX40_Fc (R&D Systems) (human, UniProt P43489 29-216); assay: BLI, IgG1 on tip, hOX40-Fc 50 nM, avid
# T3 construct: Bought
# [2] = biological target: T1, human OX40 on cells (CHO-hOX40, …); assay: flow cytometry, MFI on CHO-hOX40 over wild-type CHO
# [3] = biological target: T1, human OX40 on cells (CHO-hOX40, …); assay: flow cytometry, CHO-hOX40, 100 nM
# [4] = biological target: T2, mouse OX40Fc (Acro Biosystems); assay: BLI, IgG1 on tip, mouse OX40-Fc 100 nM, avid
# [5] = biological target: T4, cyno OX40_Fc (Acro Biosystems) (cyno); assay: BLI, IgG1 on tip, cyno OX40-Fc 100 nM, avid
# T4 construct: Bought
# Description: Sensors with loaded antibodies were exposed to 100 nM OX40 antigens for 5 min, afterwards they were transferred to assay buffer for dissociation of 5 min for off-rate measurement. Kinetics was analysed using the 1:1 binding model.
# [6] = biological target: T1, human OX40 on cells (CHO-hOX40, …); assay: cell-based or functional assay
# [7] = biological target: T1, human OX40 on cells (CHO-hOX40, …); assay: flow cytometry, 293HEK-hOX40, 200 nM
# Description: (§1) The binding of an antibody of the present invention to human OX40 may be measured in a flow cytometry assay. […] Cells are then washed at least twice, and are incubated with a secondary antibody (PE-labelled, SouthernBiotech, at final concentration of 5 μg/ml) in PBS 0.1% BSA for 30 min on ice (protected from light). Cells are washed at least twice and analysed via flow cytometry. Flow cytometry is performed on an Accuri C6 system (BD Biosciences) and MFIs are calculated accordingly.
# [8] = biological target: T1, human OX40 on cells (CHO-hOX40, …); assay: flow cytometry, 293HEK-hOX40, 40 nM
# Description: as §1
# [9] = biological target: T1, human OX40 on cells (CHO-hOX40, …); assay: flow cytometry, CHO-hOX40, 0.024414063 nM
# Description: (§2) CHO-hOX40 cells (0.2×10⁶ cells) are incubated with the experimental antibody at 100 nM for 30 min in PBS 0.1% BSA on ice. Cells are then washed at least twice, and are incubated with a secondary antibody (PE-labelled, SouthernBiotech, at final concentration of 5 μg/ml) in PBS 0.1% BSA for 30 min on ice (protected from light). Cells are washed at least twice and analysed via flow cytometry. Flow cytometry is performed on a Canto II system (BD Biosciences) and MFIs are calculated accordingly.
# [10] = biological target: T1, human OX40 on cells (CHO-hOX40, …); assay: flow cytometry, activated CD4+ T cells, donor 1, 100 nM
# Description: (§3) Primary CD4+ T cells from healthy donors are activated with anti-CD3/CD28 DynaBeads(Invitrogen) for 48 hours and 0.2×10⁶ cells are incubated with the experimental antibody at 100 nM for 30 min in PBS 0.1% BSA on ice. Cells are then washed at least twice, and are incubated with a secondary antibody (PE-labelled, SouthernBiotech, at final concentration of 5 μg/ml) in PBS 0.1% BSA for 30 min on ice (protected from light). Cells are washed at least twice and analysed via flow cytometry. Flow cytometry is performed on an Accuri C6 system (BD Biosciences) and MFIs are calculated accordingly.
# [11] = biological target: T1, human OX40 on cells (CHO-hOX40, …); assay: flow cytometry, CHO-hOX40, 0.09765625 nM
# Description: as §2
# [12] = biological target: T1, human OX40 on cells (CHO-hOX40, …); assay: flow cytometry, CHO-hOX40, 0.1953125 nM
# Description: as §2
# [13] = biological target: T1, human OX40 on cells (CHO-hOX40, …); assay: flow cytometry, 293HEK-hOX40, 8 nM
# Description: as §1
# [14] = biological target: T1, human OX40 on cells (CHO-hOX40, …); assay: flow cytometry, activated CD4+ T cells, donor 2, 100 nM
# Description: as §3
# [15] = biological target: T1, human OX40 on cells (CHO-hOX40, …); assay: flow cytometry, CHO-hOX40, 50 nM
# Description: as §2
# [16] = biological target: T1, human OX40 on cells (CHO-hOX40, …); assay: flow cytometry, CHO-hOX40, 1.5625 nM
# Description: as §2
# [17] = biological target: T1, human OX40 on cells (CHO-hOX40, …); assay: flow cytometry, 293HEK-hOX40, 1.6 nM
# Description: as §1
# [18] = biological target: T1, human OX40 on cells (CHO-hOX40, …); assay: flow cytometry, CHO-hOX40, 6.25 nM
# Description: as §2
# [19] = biological target: T1, human OX40 on cells (CHO-hOX40, …); assay: flow cytometry, CHO-hOX40, 0.78125 nM
# Description: as §2
# [20] = biological target: T1, human OX40 on cells (CHO-hOX40, …); assay: flow cytometry, 293HEK-hOX40 cells
# [21] = biological target: T1, human OX40 on cells (CHO-hOX40, …); assay: flow cytometry, CHO-hOX40, 12.5 nM
# Description: as §2
# [22] = biological target: T1, human OX40 on cells (CHO-hOX40, …); assay: flow cytometry, CHO-hOX40, 200 nM
# Description: as §2
# [23] = biological target: T1, human OX40 on cells (CHO-hOX40, …); assay: flow cytometry, CHO-hOX40, 3.125 nM
# Description: as §2
# [24] = biological target: T1, human OX40 on cells (CHO-hOX40, …); assay: flow cytometry, CHO-hOX40, 0.390625 nM
# Description: as §2
# [25] = biological target: T1, human OX40 on cells (CHO-hOX40, …); assay: flow cytometry, CHO-hOX40, 100 nM blocker, competitor OX40L-hFc-fluorescein
# Description: Cells are washed 3×. Flow cytometry is performed on an Accuri C6 system (BD Biosciences) and MFIs are calculated on the C6 software.
# [26] = biological target: T1, human OX40 on cells (CHO-hOX40, …); assay: flow cytometry, CHO-hOX40, 25 nM
# Description: as §2
# [27] = biological target: T1, human OX40 on cells (CHO-hOX40, …); assay: flow cytometry, CHO-hOX40, 0.048828125 nM
# Description: as §2
# [28] = biological target: T1, human OX40 on cells (CHO-hOX40, …); assay: flow cytometry, CHO-hOX40, 100 nM; remark: listed apart in the source
# Description: as §2
binder,measurement,setting,value
"ADI-23515, IgG1 format (antibody, Made in yeast or CHO cells; also called ADI-23515-g1) heavy: not shown light: EIVLTQSPGTLSLSPGERATLSCRASQSVSSSYLAWYQQKPGQAPRLLIYGASSRATGIPDRFSGSGSGTDFTLTISRLEPEDFAVYYCQQSERSPFTFGGGTKVEIKRTVAAPSVFIFPPSDEQLKSGTASVVCLLNNFYPREAKVQWKVDNALQSGNSQESVTEQDSKDSTYSLSSTLTLSKADYEKHKVYACEVTHQGLSSPVTKSFNRGEC",Kd,[1],0.273 nM
same,Fold difference,[2],1550 fold
same,CHO-OX40 binding intensity (MFI),[3],181000 MFI
same,Kd,[4],8.98 nM
same,Kd,[5],1.09 nM
same,"EC50, NFkB-luciferase reporter in Jurkat-hOX40 mixed with Raji cells",[6],0.174 nM
"IgG1 control (antibody, V domains shown, Negative control; The printed entries seem to begin with a leader peptide) VH: EVRLLESGGGLVQPGGSLRLSCAASGFTFSNYAMGWVRQAPGKGLEWVSAISGSGGSTYYADSVKGRFTTSRDDSKNALYLQMNSLRAEDTAVYYCARGGPGWYAADVWGQGTTVTVSS VL: DIQMTQSPSSLSASVGDRVTITCRASQSISSYLNWYQQKPGKAPKLLIYAASSLQSGVPSRFSGSGSGTDFTLTISSLQPEDFATYYCQQADLPAFAFGGGTKVEIKR",MFI,[7],11100 MFI
same,MFI,[8],25200 MFI
same,MFI,[9],2070 MFI
same,MFI,[10],6310 MFI
same,MFI,[11],2380 MFI
same,MFI,[12],1510 MFI
same,MFI,[13],5310 MFI
same,MFI,[14],1710 MFI
same,MFI,[15],1700 MFI
same,MFI,[16],1930 MFI
same,MFI,[17],5630 MFI
same,MFI,[18],1600 MFI
same,MFI,[19],1680 MFI
same,binding result,[20],no binding (tested: 200 nM)
same,MFI,[21],1630 MFI
same,MFI,[22],2820 MFI
same,MFI,[23],1750 MFI
same,MFI,[24],1710 MFI
same,MFI of OX40L signal on CHO-OX40 cells,[25],35100 MFI
same,MFI,[26],1560 MFI
same,MFI,[27],2020 MFI
same,MFI,[28],1720 MFI
